Laboratory results from the supplement of paper PMC9732359.
± gives the uncertainty stated by the source.

Assay: protein stability index of a GFP-peptide fusion (yeast GPS) (PSI 1-4); higher = more stable; sorted into four equal gates, so the index is relative within each strain
Method in brief: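 Mid-log yeast cultures in leucine-free medium, carrying a pooled plasmid library, were sorted into four equal gates by their GFP/Cherry fluorescence ratio. Each plasmid expressed Cherry along with GFP fused upstream of a tiled 17-residue yeast protein peptide. Plasmids recovered from each gate were PCR-amplified and Illumina-sequenced, with reads assigned to strains by barcodes. The protein stability index was obtained by summing each gate's read frequency weighted by its gate number.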

IDKFIMVVQKYKLSTVV [GRR1]
protein stability index (doa10∆): 1.73 ± 0.068 | protein stability index (pdr5∆): 1.9 ± 0.081 | protein stability index (san1∆): 1.58 ± 0.11 | protein stability index (ubr1∆): 1.86 ± 0.082

KKEYIELDILNKGWKLQ [SRB4]
protein stability index (doa10∆): 2.29 ± 0.13 | protein stability index (pdr5∆): 3.38 ± 0.17 | protein stability index (san1∆): 2.76 ± 0.089 | protein stability index (ubr1∆): 2.94 ± 0.16

VKESNNYYSNKSNSTGN [REC8]
protein stability index (doa10∆): 2.44 ± 0.067 | protein stability index (pdr5∆): 2.71 ± 0.085 | protein stability index (san1∆): 2.56 ± 0.07 | protein stability index (ubr1∆): 2.97 ± 0.046

DRSKPVALTSFLGYKAG [RPL3]
protein stability index (doa10∆): 2.85 ± 0.075 | protein stability index (pdr5∆): 2.89 ± 0.063 | protein stability index (san1∆): 3.08 ± 0.06 | protein stability index (ubr1∆): 2.09 ± 0.036

DPSRELNVIIDQLAVSP [YCS4]
protein stability index (doa10∆): 2.79 ± 0.055 | protein stability index (pdr5∆): 3.04 ± 0.062 | protein stability index (san1∆): 2.72 ± 0.053 | protein stability index (ubr1∆): 2.67 ± 0.05

NNRWAENNYKKRLLGTA [RPS23A]
protein stability index (doa10∆): 2.37 ± 0.27 | protein stability index (pdr5∆): 2.78 ± 0.16

IFDGNYGESDIHFREHQ [YMR129W/POM152]
protein stability index (doa10∆): 3.26 ± 0.11 | protein stability index (pdr5∆): 3.21 ± 0.21 | protein stability index (san1∆): 3.58 ± 0.2 | protein stability index (ubr1∆): 3.05 ± 0.15

LGKKGVPYVVTHDGRTI [RPS4A]
protein stability index (doa10∆): 2.43 ± 0.068 | protein stability index (pdr5∆): 2.52 ± 0.092 | protein stability index (san1∆): 1.66 ± 0.098 | protein stability index (ubr1∆): 2.13 ± 0.054

QNDILQESFINTMSAWV [FAS2]
protein stability index (doa10∆): 2.14 ± 0.089 | protein stability index (pdr5∆): 2.54 ± 0.19 | protein stability index (san1∆): 2.55 ± 0.074 | protein stability index (ubr1∆): 2.28 ± 0.086

VIEEDYDDEQNTSAQHV [IRR1]
protein stability index (doa10∆): 3.5 ± 0.097 | protein stability index (pdr5∆): 2.95 ± 0.12 | protein stability index (san1∆): 3.12 ± 0.08 | protein stability index (ubr1∆): 3.52 ± 0.19

KGRKTNKYANNDFANNL [CSL4]
protein stability index (doa10∆): 3.28 ± 0.066 | protein stability index (pdr5∆): 3.14 ± 0.053 | protein stability index (san1∆): 3.13 ± 0.051 | protein stability index (ubr1∆): 3.15 ± 0.095

STLTTISGNPPLLYNSL [SRB5]
protein stability index (doa10∆): 2.66 ± 0.043 | protein stability index (pdr5∆): 2.46 ± 0.038 | protein stability index (san1∆): 2.49 ± 0.043 | protein stability index (ubr1∆): 2.56 ± 0.036

LDDPVLNAIVSKNSPAE [YJR042W/NUP85]
protein stability index (doa10∆): 2.9 ± 0.16 | protein stability index (pdr5∆): 1.92 ± 0.1 | protein stability index (ubr1∆): 2.01 ± 0.078

KKNIQKAKSNQTQREKA [IRR1]
protein stability index (doa10∆): 2.59 ± 0.099 | protein stability index (pdr5∆): 2.65 ± 0.11 | protein stability index (san1∆): 2.77 ± 0.11 | protein stability index (ubr1∆): 2.73 ± 0.066

VPKHMLDKLDEILYYQI [AAR2]
protein stability index (doa10∆): 2.91 ± 0.069 | protein stability index (pdr5∆): 3 ± 0.099 | protein stability index (san1∆): 2.95 ± 0.076 | protein stability index (ubr1∆): 3.17 ± 0.063

TDYLYRRLHDENLMVQR [YCS4]
protein stability index (doa10∆): 2.44 ± 0.089 | protein stability index (pdr5∆): 2.08 ± 0.063 | protein stability index (san1∆): 2.45 ± 0.067 | protein stability index (ubr1∆): 2.38 ± 0.076

NHSLQHQNESSAASIPP [RPN4]
protein stability index (doa10∆): 2.94 ± 0.057 | protein stability index (pdr5∆): 3 ± 0.058 | protein stability index (san1∆): 2.83 ± 0.062 | protein stability index (ubr1∆): 3.12 ± 0.037

LYSGLIIDEIITQMRVN [RPC82]
protein stability index (doa10∆): 2.12 ± 0.078 | protein stability index (pdr5∆): 2.36 ± 0.094 | protein stability index (san1∆): 2.71 ± 0.2 | protein stability index (ubr1∆): 1.58 ± 0.068

QLAQIRQFLKANKTNLI [YML103C/NUP188]
protein stability index (doa10∆): 2.65 ± 0.057 | protein stability index (pdr5∆): 2.81 ± 0.068 | protein stability index (san1∆): 2.86 ± 0.049 | protein stability index (ubr1∆): 2.93 ± 0.04

MKVEIDSFSGAKIYPGR [RPL24A]
protein stability index (doa10∆): 3.35 ± 0.072 | protein stability index (pdr5∆): 3.45 ± 0.12 | protein stability index (san1∆): 3.25 ± 0.08 | protein stability index (ubr1∆): 3.22 ± 0.1

LHQYYGDDESKIPAVEY [FAS1]
protein stability index (pdr5∆): 2.75 ± 0.21 | protein stability index (san1∆): 2.96 ± 0.19

NIKIDAKPALFERFINA [MCD1]
protein stability index (doa10∆): 1.76 ± 0.053 | protein stability index (pdr5∆): 2.8 ± 0.095 | protein stability index (san1∆): 2.3 ± 0.1 | protein stability index (ubr1∆): 2.03 ± 0.066

NEDSKAFHTAVLRLNAI [NUT1]
protein stability index (doa10∆): 3.26 ± 0.058 | protein stability index (pdr5∆): 3.34 ± 0.055 | protein stability index (san1∆): 3.41 ± 0.047 | protein stability index (ubr1∆): 3.27 ± 0.051

LTFQPQQQTNALNGIDI [GRR1]
protein stability index (doa10∆): 2.84 ± 0.067 | protein stability index (pdr5∆): 3.07 ± 0.075 | protein stability index (san1∆): 3.02 ± 0.082 | protein stability index (ubr1∆): 3.1 ± 0.056

AHMWPRVHDQPLIWQLL [POP3]
protein stability index (doa10∆): 1.42 ± 0.12 | protein stability index (pdr5∆): 1.64 ± 0.12 | protein stability index (san1∆): 1.44 ± 0.23 | protein stability index (ubr1∆): 1.51 ± 0.11

PPPPQQSQPIANQSATS [SNF5]
protein stability index (doa10∆): 2.96 ± 0.057 | protein stability index (pdr5∆): 3.15 ± 0.049 | protein stability index (san1∆): 2.92 ± 0.043 | protein stability index (ubr1∆): 3.05 ± 0.041

DLEKLLEMSTEDFVKLA [RPS15]
protein stability index (doa10∆): 3.11 ± 0.15 | protein stability index (pdr5∆): 3.13 ± 0.12 | protein stability index (san1∆): 3.44 ± 0.12 | protein stability index (ubr1∆): 3.28 ± 0.08

AILRQQQQMANNNGNPG [GAL11]
protein stability index (doa10∆): 2.77 ± 0.12 | protein stability index (pdr5∆): 3.19 ± 0.13 | protein stability index (san1∆): 2.7 ± 0.12 | protein stability index (ubr1∆): 3.17 ± 0.05

NDSFKGLITNKMWFDVQ [PRP8]
protein stability index (doa10∆): 2.98 ± 0.16 | protein stability index (pdr5∆): 2.99 ± 0.085 | protein stability index (san1∆): 3.03 ± 0.11 | protein stability index (ubr1∆): 3.08 ± 0.087

DLQRLKPLGLDRYGNRY [ITC1]
protein stability index (ubr1∆): 3.05 ± 0.13

IQRTTESLILKWDNQSA [RGR1]
protein stability index (doa10∆): 3.14 ± 0.051 | protein stability index (pdr5∆): 3.05 ± 0.056 | protein stability index (san1∆): 2.36 ± 0.059 | protein stability index (ubr1∆): 2.94 ± 0.05

YVKDARKDTVSREVLRY [RPC40]
protein stability index (doa10∆): 3.64 ± 0.13 | protein stability index (pdr5∆): 3.2 ± 0.14 | protein stability index (san1∆): 3.33 ± 0.071 | protein stability index (ubr1∆): 3.21 ± 0.11

GRDTTDYLKNIIVENSG [RPN2]
protein stability index (doa10∆): 3.21 ± 0.13 | protein stability index (pdr5∆): 2.83 ± 0.17 | protein stability index (san1∆): 3.34 ± 0.12 | protein stability index (ubr1∆): 3.4 ± 0.23

WNLNQFQIEADFIGHNS [ASC1]
protein stability index (doa10∆): 2.79 ± 0.079 | protein stability index (pdr5∆): 2.7 ± 0.058 | protein stability index (san1∆): 2.95 ± 0.076 | protein stability index (ubr1∆): 2.52 ± 0.059

RANVYVGFLVQLDLTGI [PRP8]
protein stability index (doa10∆): 2.5 ± 0.05 | protein stability index (pdr5∆): 2.13 ± 0.052 | protein stability index (san1∆): 2.21 ± 0.057 | protein stability index (ubr1∆): 2.45 ± 0.05

YREAPVIYRGPEPSHID [RET1]
protein stability index (doa10∆): 2.83 ± 0.22 | protein stability index (pdr5∆): 3.07 ± 0.23 | protein stability index (san1∆): 3.21 ± 0.16 | protein stability index (ubr1∆): 3.36 ± 0.16

IASAGKDGEIMLWNLAA [ASC1]
protein stability index (doa10∆): 2.92 ± 0.077 | protein stability index (pdr5∆): 1.66 ± 0.053 | protein stability index (san1∆): 3.03 ± 0.054 | protein stability index (ubr1∆): 3.09 ± 0.076

DLWNNFGNIMDNLLEMS [RRP6]
protein stability index (doa10∆): 3.42 ± 0.094 | protein stability index (pdr5∆): 2.88 ± 0.076 | protein stability index (san1∆): 3.21 ± 0.058 | protein stability index (ubr1∆): 2.95 ± 0.11

AICRNHIMEPCIECQPK [HRT1]
protein stability index (doa10∆): 2.26 ± 0.081 | protein stability index (pdr5∆): 3.23 ± 0.13 | protein stability index (san1∆): 2.17 ± 0.094 | protein stability index (ubr1∆): 2.67 ± 0.074

GTPLQNNLHELWALLNF [ISW2]
protein stability index (doa10∆): 2.76 ± 0.045 | protein stability index (pdr5∆): 2.55 ± 0.051 | protein stability index (san1∆): 2.35 ± 0.05 | protein stability index (ubr1∆): 2.76 ± 0.041

LLESYKTLSLKSMASAF [RPN7]
protein stability index (doa10∆): 1.67 ± 0.093 | protein stability index (pdr5∆): 2.31 ± 0.11 | protein stability index (san1∆): 1.89 ± 0.14 | protein stability index (ubr1∆): 1.12 ± 0.033

LMTHITTDDEEEPIKKL [RET1]
protein stability index (doa10∆): 3.42 ± 0.27 | protein stability index (pdr5∆): 3.41 ± 0.28 | protein stability index (ubr1∆): 3.49 ± 0.17

QELISKAFTNWNKRDFM [ISW2]
protein stability index (doa10∆): 2.27 ± 0.14 | protein stability index (pdr5∆): 3.55 ± 0.23 | protein stability index (san1∆): 1.59 ± 0.15 | protein stability index (ubr1∆): 2.89 ± 0.25

NVVPYHRNTSDYYYEDA [SWI1]
protein stability index (doa10∆): 2.85 ± 0.085 | protein stability index (pdr5∆): 3.13 ± 0.075 | protein stability index (san1∆): 3.03 ± 0.08 | protein stability index (ubr1∆): 3.08 ± 0.055

EFTSKIGFTIKEYENHS [SMC1]
protein stability index (doa10∆): 2.59 ± 0.11 | protein stability index (pdr5∆): 3.04 ± 0.061 | protein stability index (san1∆): 2.84 ± 0.12 | protein stability index (ubr1∆): 3.01 ± 0.063

VIVPQIVLDEVRNKSYP [DIS3]
protein stability index (doa10∆): 2.68 ± 0.066 | protein stability index (pdr5∆): 2.33 ± 0.089 | protein stability index (san1∆): 2.79 ± 0.11 | protein stability index (ubr1∆): 1.46 ± 0.04

MKWDFAKDIKGYGTQKI [PRE4]
protein stability index (doa10∆): 2.15 ± 0.064 | protein stability index (pdr5∆): 1.85 ± 0.057 | protein stability index (san1∆): 1.84 ± 0.12 | protein stability index (ubr1∆): 1.4 ± 0.048

KDSTAGKKVFETQYFWK [YJR042W/NUP85]
protein stability index (san1∆): 3.03 ± 0.21

LLLKKLDNFQKSVEKTM [SMC3]
protein stability index (doa10∆): 2.54 ± 0.2 | protein stability index (pdr5∆): 2.74 ± 0.23 | protein stability index (san1∆): 2.44 ± 0.24 | protein stability index (ubr1∆): 2.88 ± 0.17

FEGWGHEYIRHLALEIG [RPN1]
protein stability index (doa10∆): 2.18 ± 0.098 | protein stability index (pdr5∆): 2.06 ± 0.071 | protein stability index (san1∆): 2.41 ± 0.12 | protein stability index (ubr1∆): 2.1 ± 0.083

SMILEAISTDKINPFGF [RRI2]
protein stability index (doa10∆): 2.85 ± 0.076 | protein stability index (pdr5∆): 3.01 ± 0.12 | protein stability index (san1∆): 2.59 ± 0.12 | protein stability index (ubr1∆): 2.92 ± 0.083

TEELQTQYATSQKTKTI [SMC2]
protein stability index (doa10∆): 3.5 ± 0.24 | protein stability index (pdr5∆): 3.19 ± 0.14 | protein stability index (san1∆): 3.11 ± 0.23 | protein stability index (ubr1∆): 3.18 ± 0.093
